Results as given in US20050182242A1, “Global analysis of protein activities using proteome chips” (priority 2001, published 2005).

B1: Hxk1p: yeast hexokinase, GST fusion (protein, UniProt P04806 1-485, looked up)
Hexokinase-1: MVHLGPKKPQARKGSMADVPKELMDEIHQLEDMFTVDSETLRKVVKHFIDELNKGLTKKGGNIPMIPGWVMEFPTGKESGNYLAIDLGGTNLRVVLVKLSGNHTFDTTQSKYKLPHDMRTTKHQEELWSFIADSLKDFMVEQELLNTKDTLPLGFTFSYPASQNKINEGILQRWTKGFDIPNVEGHDVVPLLQNEISKRELPIEIVALINDTVGTLIASYYTDPETKMGVIFGTGVNGAFYDVVSDIEKLEGKLADDIPSNSPMAINCEYGSFDNEHLVLPRTKYDVAVDEQSPRPGQQAFEKMTSGYYLGELLRLVLLELNEKGLMLKDQDLSKLKQPYIMDTSYPARIEDDPFENLEDTDDIFQKDFGVKTTLPERKLIRRLCELIGTRAARLAVCGIAAICQKRGYKTGHIAADGSVYNKYPGFKEAAAKGLRDIYGWTGDASKDPITIVPAEDGSGAGAAVIAALSEKRIAEGKSLGIIGA
modifications: GST tag
notes: yeast hexokinase, GST fusion
B2: Eno2p: yeast enolase, GST fusion (protein, UniProt P00925 2-437, looked up)
Enolase 2: AVSKVYARSVYDSRGNPTVEVELTTEKGVFRSIVPSGASTGVHEALEMRDEDKSKWMGKGVMNAVNNVNNVIAAAFVKANLDVKDQKAVDDFLLSLDGTANKSKLGANAILGVSMAAARAAAAEKNVPLYQHLADLSKSKTSPYVLPVPFLNVLNGGSHAGGALALQEFMIAPTGAKTFAEAMRIGSEVYHNLKSLTKKRYGASAGNVGDEGGVAPNIQTAEEALDLIVDAIKAAGHDGKVKIGLDCASSEFFKDGKYDLDFKNPESDKSKWLTGVELADMYHSLMKRYPIVSIEDPFAEDDWEAWSHFFKTAGIQIVADDLTVTNPARIATAIEKKAADALLLKVNQIGTLSESIKAAQDSFAANWGVMVSHRSGETEDTFIADLVVGLRTGQIKTGAPARSERLAKLNQLLRIEEELGDKAVYAGENFHHGDKL
modifications: GST tag
notes: yeast enolase, GST fusion
B3: Pyc1p: pyruvate carboxylase 1 homolog with conserved biotin-attachment region (protein, UniProt P11154 1-1178, looked up)
Pyruvate carboxylase 1: MSQRKFAGLRDNFNLLGEKNKILVANRGEIPIRIFRTAHELSMQTVAIYSHEDRLSTHKQKADEAYVIGEVGQYTPVGAYLAIDEIISIAQKHQVDFIHPGYGFLSENSEFADKVVKAGITWIGPPAEVIDSVGDKVSARNLAAKANVPTVPGTPGPIETVEEALDFVNEYGYPVIIKAAFGGGGRGMRVVREGDDVADAFQRATSEARTAFGNGTCFVERFLDKPKHIEVQLLADNHGNVVHLFERDCSVQRRHQKVVEVAPAKTLPREVRDAILTDAVKLAKECGYRNAGTAEFLVDNQNRHYFIEINPRIQVEHTITEEITGIDIVAAQIQIAAGASLPQLGLFQDKITTRGFAIQCRITTEDPAKNFQPDTGRIEVYRSAGGNGVRLDGGNAYAGTIISPHYDSMLVKCSCSGSTYEIVRRKMIRALIEFRIRGVKTNIPFLLTLLTNPVFIEGTYWTTFIDDTPQLFQMVSSQNRAQKLLHYLADVAVNGSSIKGQIGLPKLKSNPSVPHLHDAQGNVINVTKSAPPSGWRQVLLEKGPAEFARQVRQFNGTLLMDTTWRDAHQSLLATRVRTHDLATIAPTTAHALAGRFALECWGGATFDVAMRFLHEDPWERLRKLRSLVPNIPFQMLLRGANGVAYSSLPDNAIDHFVKQAKDNGVDIFRVFDALNDLEQLKVGVDAVKKAGGVVEATVCFSGDMLQPGKKYNLDYYLEIAEKIVQMGTHILGIKDMAGTMKPAAAKLLIGSLRAKYPDLPIHVHTHDSAGTAVASMTACALAGADVVDVAINSMSGLTSQPSINALLASLEGNIDTGINVEHVRELDAYWAEMRLLYSCFEADLKGPDPEVYQHEIPGGQLTNLLFQAQQLGLGEQWAETKRAYREANYLLGDIVKVTPTSKVVGDLAQFMVSNKLTSDDVRRLANSLDFPDSVMDFFEGLIGQPYGGFPEPFRSDVLRNKRRKLTCRPGLELEPFDLEKIREDLQNRFGDVDECDVASYNMYPRVYEDFQKMRETYGDLSVLPTRSFLSPLETDEEIEVVIEQGKTLIIKLQAVGDLNKKTGEREVYFDLNGEMRKIRVADRSQKVETVTKSKADMHDPLHIGAPMAGVIVEVKVHKGSLIKKGQPVAVLSAMKMEMIISSPSDGQVKEVFVSDGENVDSSDLLVLLEDQVPVETKA
B4: Bur6p: alpha-subunit of the NC2 (Dr1/Drap1) repressor of class II transcription (protein, UniProt P40096 1-142, looked up)
Negative cofactor 2 complex …: MADQVPVTTQLPPIKPEHEVPLDAGGSPVGNMGTNSNNNNELGDVFDRIKTHFPPAKVKKIMQTDEDIGKVSQATPVIAGRSLEFFIALLVKKSGEMARGQGTKRITAEILKKTILNDEKFDFLREGLCVEEGQTQPEEESA

What was measured:
[1] = system: phospholipids (phosphatidylinositols vs phosphatidylcholine); assay: Proteome chip lipid-binding screen, overall analysis of six liposomes (PI/PC specificity); conditions: phospholipid liposome probes
Text: FIGS. 4A-4D. Analysis of the phosphatidylinositol-binding proteins. To determine the phosphatidylinositol (“PI”)-binding specificity of 150 positive proteins, their binding signals were normalized against the corresponding binding signals of phosphatidylcholine (“PC”). Based on the ratios (“PI/PC”), the proteins were grouped into four categories: (A) 30 strong and specific, (B) 43 strong and nonspecific, (C) 19 weak and specific, and (D) 58 weak and nonspecific phosphatidylinositol-binding proteins. The intensity represents the PI/PC signal ratio as shown by the scale in the figure. The column, labeled “10^n” to the right of the PI/PC binding ratios indicates the maximum binding signal intensity (open boxes) and its confidence interval (solid horizontal lines); the numbers indicate the log of the values. Boxes in the three columns to the right of the confidence interval column indicate membrane-associated proteins (“Membrane”), kinases (“Kinase”), and uncharacterized ORFs (“Unknown”), respectively.
To identify PI-binding proteins in yeast, liposomes were used as probes because the liposome provides the most relevant physiological condition to assay the interactors. Six types of liposomes were used. Each contains phosphatidylcholine (“PC”) with 1% (w/w) N-(biotinoyl)-1,2-dihexadecanoyl-sn-glycero-3-phosphoethanolamine, triethylammonium salt (biotin DHPE). The biotinylated lipid serves as a label that can be detected by Cy3-streptavidin (21). In addition to PC, the five other liposomes contain either 5% (w/w) PI(3)P, PI(4)P, PI(3,4)P2, PI(4,5)P2, or PI(3,4,5)P3 (FIG. 3A).
The protein-liposome interaction was assayed as follows. Appropriate amounts of each lipid in chloroform were mixed and dried under nitrogen. The lipid mixture was resuspended in TBS buffer by vortexing. The liposomes were created by sonication. Blocked proteome chips were washed three to five times in PBS buffer, and the extra liquid on the glass surface was removed by tapping the slides vertically on a KIMWIPE™. 200 μl of liposome solution was added to the proteome chip and immediately covered by a hydrophobic plastic cover slip (GRACE BIO-LAB™, USA). After trapped air bubbles were removed, the chip was incubated in a humidity chamber at RT for one hour. To remove the cover slip, the chip was immersed into large volume of PBS buffer (50 ml), so that the slip would float away. The chip was then moved to a second PBS bath (>50 ml) and washed 3×5 min with shaking at RT. After removing extra liquid on the surface of the chip, about 100 μl of Cy3 or Cy5 conjugated streptavidin (PIERCE™, USA; 1:2000 to 1:4000 dilution) was added to the surface and covered by a hydrophobic plastic cover slip (GRACE BIO-LABS™, USA). The chip was incubated for greater than 30 min in the dark at RT. The chip was then washed as described above. To completely remove the liquid on the chip, the chip was spun to dryness at 1500-2000 rpm for 5-10 min at RT.
An algorithm was devised to assist in the identification of positive signals (42). Fifty-two (35%) of the interactors (i.e., lipid-binding proteins) correspond to uncharacterized proteins thus ascribing the first biochemical activities to those proteins.
The interactors (i.e., phospholipid-binding proteins) were grouped in several ways (42). First, the interactors were sorted according to whether they bound lipids strongly or weakly, based on the phospholipid-binding signal relative to the amount of GST (FIG. 4). Slightly more (72%) of the strong lipid binding proteins (FIGS. 4A and 4B) were characterized relative to the weakly binding proteins (54%) (FIGS. 4C and 4D). Many of the strong lipid-binding proteins are membrane-associated, or are predicted to be associated with membranes, whereas fewer of the weaker binding proteins appear to be associated with membranes (FIG. 4, “Membrane” column). […] Moreover, thirteen of the seventeen protein kinases bind very strongly to the phospholipids. […]

[2] = system: PI(4,5)P2 liposomes; assay: Nitrocellulose membrane assay: adhered PI(4,5)P2 liposomes probed with GST fusion proteins; assay type: binding; conditions: dilution series, anti-GST antibodies, ECL
Text: A. PI(4,5)P2 liposomes were first adhered to a nitrocellulose membrane, which was blocked by BSA; a dilution series of Rim15p, Eno2p, and Hxk1p, and a GST control were used to probe the membrane. The bound proteins were detected using the anti-GST antibodies and an enhanced chemiluminescence (“ECL”) kit.
Therefore, six proteins, i.e., Rim15p, Eno2p, Hxk1p, Sps1p, Yg1059wp, and Gcn2p, were further tested for phosphoinositol binding using two types of standard assays (Williamson, 2000, Nat. Struct Biol. 7(10):834-7). For Rim15p, Eno2p, and Hxk1p, PI(4,5)P2 liposomes were first adhered to a nitrocellulose membrane, which was then blocked by BSA; different amounts of the GST fusion proteins and a GST control were used to probe the membrane, and bound proteins were detected using anti-GST antibodies. […] We also carried out the reverse assay for four GST fusion proteins, Rim15p, Sps1p, Yg1059wp, and Gcn2p (Guerra et al., 2000, Biosci. Rep. 20: 41). Different amounts of these purified proteins were spotted onto nitrocellulose filters and probed with the six different liposomes (FIG. 5B). The bound liposomes were detected using a horseradish peroxidase (“HRP”)-conjugated streptavidin.

[3] = target: T1, Cy3-labeled streptavidin (Streptomyces avidinii, UniProt P22629); assay: Yeast proteome chip probed with Cy3-labeled streptavidin alone; assay type: binding
T1 construct: purchased Jackson IR, USA
T1 sequence (P22629 25-183): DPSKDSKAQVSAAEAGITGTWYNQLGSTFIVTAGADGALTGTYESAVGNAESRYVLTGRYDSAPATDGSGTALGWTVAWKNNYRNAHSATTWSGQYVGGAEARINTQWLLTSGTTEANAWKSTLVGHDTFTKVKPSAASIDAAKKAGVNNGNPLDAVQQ
Text: To test for protein-protein interactions, the yeast proteome was probed with calmodulin (11). Calmodulin is a highly conserved calcium-binding protein involved in many calcium-regulated cellular processes and has many known physical partners (Hook et al., 2001, Annu. Rev. Pharmacol. Toxicol. 41:471). The calmodulin probe was biotinylated, and bound probe was detected using Cy3-labeled streptavidin. As a control, the yeast proteome was probed with Cy3-labeled streptavidin alone.
In addition to the calmodulin-binding targets, one protein, Pyc1p, which bound Cy3 -labeled streptavidin, was also identified. Pyc1p encodes a pyruvate carboxylase 1 homolog that contains a highly conserved biotin-attachment region (Menendez et al., 1998, Yeast 14:647). Thus, as predicted by its sequence, Pyc1p is biotinylated in vivo; and was identified in all experiments using streptavidin detection methods. Thus, proteome microarrays can be used to identify posttranslational modifications of proteins.

[4] = system: RNA-polyA+; assay: Yeast proteome chip probed with biotin-labeled polyA+ RNA; assay type: binding; conditions: Cy3-streptavidin
Text: Protein-DNA and protein-RNA interactions are important for many fundamental biological functions such as transcription regulation, chromosome segregation and maintenance, and RNA transport and processing (Williamson, 2000, Nat. Struct. Biol. 7(10):834-7). To explore the possibility of using a proteome chip to identify proteins that bind to DNA or RNA molecules, total yeast genomic DNA was labeled using Cy3-CTP and Klenow fragment, and polyA^+ was labeled using a biotinylated psoralen-derivative (31). Each probe was incubated with a different proteome chip (FIG. 3A).
The protein-nucleic acid interaction was assayed as follows. The nucleic acid robes were labeled as described by Winzeler et al. (1999, Science 285:901). Blocked proteome chips were washed three to five times in PBS buffer, and the extra liquid on the glass surface was removed by tapping the slides vertically on a KIMWIPE™. 200 μl of labeled nuclei acid probe ([…] poly(dC/dG); 100-300 mM NaCl; 50-300 mM HEPES, pH 7.0-8.5; 10 mM MgCl2) was added to the proteome chip and immediately covered by a hydrophobic plastic cover slip (GRACE BIO-LABS™, USA). After trapped air bubbles were removed, the chip was incubated in a humidity chamber in the dark at room temperature (“RT”) for one hour. To remove the cover slip, the chip was immersed into large volume of PBS buffer(>50 ml), so that the slip would float away. The chip was then moved to a second PBS bath (>50 ml) and washed 3×5 min with shaking in the dark at RT. To completely remove the liquid on the chip, the chip was spun to dryness at 1500-2000 rpm for 5-10 min at RT.
RNA-polyA^+ from exponentially growing cells was labeled with biotin and used to probe the proteome microarray. The positive signals were detected using Cy3-streptavidin. […] In addition to proteins that likely directly or indirectly interact with RNA, we found two transcription factors (Bur6p and Tos8p), one transcriptional silencer (Hst3p), six other proteins encoded by known ORFs, and seven proteins from uncharacterized ORFs.

[5] = system: total yeast genomic DNA; assay: Yeast proteome chip probed with labeled genomic DNA; assay type: binding; conditions: Cy3-labeled genomic DNA, visual inspection
How it was run: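 Total yeast genomic DNA, Cy3-labelled with Klenow fragment, was applied to blocked proteome chips. Binding buffer: […], 100-300 mM NaCl, 50-300 mM HEPES pH 7.0-8.5, 10 mM MgCl2; 1 h at RT in the dark, followed by PBS washes.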

Molecule	identified as lipid-binding interactor [1]	binding to PI(4,5)P2 liposomes on membrane [2]	binding of Cy3-labeled streptavidin [3]	binding of polyA+ RNA probe [4]	binding of genomic DNA probe [5]
B1	identified	tightly bound PI(4,5)P2			
B2	identified	tightly bound PI(4,5)P2			
B3			bound		
B4				bound both the DNA and RNA probes	identified
